Key:
[1] = biological target: torsinA (endogenous, mouse fibroblasts) (mouse (endogenous in MFs)) (UniProt Q9ER39); assay: co-IP
[2] = biological target: YFP-human-nesprin-3 (human) (UniProt Q6ZMZ3); assay: co-IP
Chain of YFP-human-nesprin-3 (human) (Q6ZMZ3 whole entry): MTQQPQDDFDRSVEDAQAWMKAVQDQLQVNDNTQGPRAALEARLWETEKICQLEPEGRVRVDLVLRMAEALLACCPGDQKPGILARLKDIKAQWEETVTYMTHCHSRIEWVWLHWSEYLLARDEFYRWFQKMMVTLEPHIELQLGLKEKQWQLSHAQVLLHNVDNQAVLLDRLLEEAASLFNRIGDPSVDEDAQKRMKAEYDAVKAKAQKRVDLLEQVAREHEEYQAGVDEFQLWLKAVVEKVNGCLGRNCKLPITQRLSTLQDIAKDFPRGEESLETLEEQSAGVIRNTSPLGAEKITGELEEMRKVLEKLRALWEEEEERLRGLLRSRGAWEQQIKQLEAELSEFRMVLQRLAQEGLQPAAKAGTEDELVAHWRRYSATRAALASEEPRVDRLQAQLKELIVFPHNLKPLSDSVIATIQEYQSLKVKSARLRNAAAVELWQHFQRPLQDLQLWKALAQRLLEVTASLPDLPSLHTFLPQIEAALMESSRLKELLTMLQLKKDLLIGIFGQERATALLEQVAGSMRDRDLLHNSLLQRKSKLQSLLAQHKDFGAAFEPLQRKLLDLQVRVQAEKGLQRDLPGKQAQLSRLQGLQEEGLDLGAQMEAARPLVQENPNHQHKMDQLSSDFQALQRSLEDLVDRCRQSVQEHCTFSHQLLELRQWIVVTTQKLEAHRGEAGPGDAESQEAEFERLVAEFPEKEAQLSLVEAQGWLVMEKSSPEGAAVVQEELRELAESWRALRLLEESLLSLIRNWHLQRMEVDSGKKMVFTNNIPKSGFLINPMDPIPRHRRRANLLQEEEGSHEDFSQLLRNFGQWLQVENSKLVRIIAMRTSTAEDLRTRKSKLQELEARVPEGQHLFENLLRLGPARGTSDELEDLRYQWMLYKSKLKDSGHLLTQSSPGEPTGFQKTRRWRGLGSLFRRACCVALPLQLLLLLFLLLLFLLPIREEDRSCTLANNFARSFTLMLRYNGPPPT

Chain of torsinA (endogenous, mouse fibroblasts) (mouse (endogenous in MFs)) (Q9ER39 21-333): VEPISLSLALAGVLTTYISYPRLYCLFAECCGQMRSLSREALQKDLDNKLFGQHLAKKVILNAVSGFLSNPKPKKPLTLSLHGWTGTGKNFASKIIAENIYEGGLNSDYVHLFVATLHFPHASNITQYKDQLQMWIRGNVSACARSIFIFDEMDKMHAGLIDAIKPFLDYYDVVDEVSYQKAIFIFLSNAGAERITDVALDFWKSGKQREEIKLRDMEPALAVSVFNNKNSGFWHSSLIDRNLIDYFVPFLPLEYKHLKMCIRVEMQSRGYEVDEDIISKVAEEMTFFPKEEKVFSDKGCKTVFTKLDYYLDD
Chain of torsinAΔE (human, expressed in 293T cells) (O14656 21-332, stated change not applied): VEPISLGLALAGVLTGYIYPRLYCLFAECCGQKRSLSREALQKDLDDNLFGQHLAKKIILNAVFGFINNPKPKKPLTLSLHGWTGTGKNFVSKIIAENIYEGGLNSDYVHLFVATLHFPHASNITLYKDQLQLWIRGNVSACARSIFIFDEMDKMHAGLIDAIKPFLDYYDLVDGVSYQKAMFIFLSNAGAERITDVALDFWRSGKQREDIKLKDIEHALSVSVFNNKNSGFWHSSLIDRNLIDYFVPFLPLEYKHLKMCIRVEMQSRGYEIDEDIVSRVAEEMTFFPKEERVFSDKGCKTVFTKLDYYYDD

Row | Substance | percentage immunoprecipitated from lysates [1] | percentage immunoprecipitated with YFP-nesprin-3 in the presence of ATP [2]
1 | plectin (endogenous, mouse fibroblasts), Q9QXS1 1-4691 | 7% | 
2 | torsinAΔE (human, expressed in 293T cells) (from UniProt O14656 21-332) (natural protein) |  | 25%
